We go through 1 substance from US9504755B2, “Multi-arm polymeric alkanoate conjugates” (Nektar Therapeutics, priority 2008, dated 2016).

One data set can be described thus: Stability in rat plasma. It counts as in vitro ADME. The conditions noted are these: 37° C. As to the method: (§1) The objective of the study was to assess the stability of 4-ARM-PEG20K-BA-docetaxel in mouse, rat, dog, and human plasma.
(§2) 4-ARM-PEG20K-BA-docetaxel was spiked ([…]; 60 μM) into heparinized, pooled male mouse, rat, and dog plasma; mixed sex pooled human plasma; and phosphate buffered saline. Triplicate samples were incubated at 37° C. for 0, 15, 30, 60, 120, and 240 min. Aliquots were removed at each timepoint and analyzed for disappearance of 4-ARM-PEG20K-BA-docetaxel and appearance of docetaxel using the validated dog plasma analytical method.

The nature of data set [1]: Stability in human plasma. The class given is in vitro ADME. The conditions noted are these: 37° C. As to the method: as §1, §2

Take “4-ARM-PEG20K-Butanoate-Linked Docetaxel Conjugate [4-ARM-PEG20K-BA-DOC]”: the figures for the “Conjugate remaining at 4 hr (%)” value (in “Stability in rat plasma” (60 μM); in data set [1] (60 μM)) were 64% and 88%, respectively. The “Docetaxel released at 4 hr (%)” value amounted to 20% in “Stability in rat plasma” (60 μM) and 4% in data set [1] (60 μM). The “Mass balance (%)” value in the data set “Stability in rat plasma” (4 hr) is recorded as 84%; in data set [1] (4 hr) it was 92%.
